This is an account of results in article PMC5780041.

Common to all, as to assay: GST pull-down, quantified immunoblot
In general terms: In western blotting, separated proteins are transferred to a membrane and probed.

Experiment [1] concerns the target 4x tandem linear human ubiquitin (C-terminal His-tagged) (UniProt P0CG48). The conditions noted are these: - PINK1 (non-phosphorylated 4xUb); parent: est. 32; read off a plot.
Experiment [2] has as its target 4x tandem linear human ubiquitin (C-terminal His-tagged), phosphorylated in vitro by GST-TcPINK1 (UniProt P0CG48). Particulars: + PINK1 (4xUb pre-treated with GST-TcPINK1); parent: est. 20; read off a plot.
The target in experiment [3] is 3x tandem linear human ubiquitin (C-terminal His-tagged) (UniProt P0CG48). The conditions noted are these: - PINK1 (non-phosphorylated 3xUb); parent: est. 16; read off a plot.
The target in experiment [4] is 3x tandem linear human ubiquitin (C-terminal His-tagged), phosphorylated in vitro by GST-TcPINK1 (UniProt P0CG48). Particulars: + PINK1 (3xUb pre-treated with GST-TcPINK1); parent: est. 14; read off a plot.
Experiment [5] has as its target 2x tandem linear human ubiquitin (C-terminal His-tagged), phosphorylated in vitro by GST-TcPINK1 (UniProt P0CG48). Particulars: + PINK1 (2xUb pre-treated with GST-TcPINK1); parent: est. 7.5; read off a plot.

Sequence of GST-tagged mouse RABGEF1 (WT) 1-74aa, Q9JM13 A58D (Q9JM13 1-74 A58D): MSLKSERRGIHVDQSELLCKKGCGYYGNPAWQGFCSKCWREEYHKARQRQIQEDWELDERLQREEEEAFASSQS
Sequence of GST-tagged mouse RABGEF1 (WT) 1-74aa, Q9JM13 Y26A (Q9JM13 1-74 Y26A): as the sequence (Q9JM13 1-74 A58D) above, with Y26A, D58A counted along it

Consider “GST-tagged mouse RABGEF1 (WT) 1-74aa, Q9JM13 A58D”, for which the response in experiment [1] is 24 % of total; in experiment [2] it was 17 % of total; in experiment [3], 8 % of total; in experiment [4] it was 8 % of total.

With “GST-tagged mouse RABGEF1 (WT) 1-74aa, Q9JM13 Y26A”, the response in experiment [1] is 28 % of total; in experiment [2], 20 % of total; in experiment [3] it was 14 % of total; in experiment [5], 4 % of total; in experiment [4], 13 % of total.
